From US20220259294A1 (published 2022)

T1: IHF from Haemophilus influenzae (Hi) (Haemophilus influenzae)
T1 chain: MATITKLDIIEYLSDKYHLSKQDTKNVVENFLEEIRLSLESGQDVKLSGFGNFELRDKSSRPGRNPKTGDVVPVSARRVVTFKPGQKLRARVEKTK

B1: TRL1068 (antibody, V domains shown)
VH: QVQLVESGPGLVKPSETLSLTCRVSGDSNRPSYWSWIRQAPGKAMEWIGYVYDSGVTIYNPSLKGRVTISLDTSKTRFSLKLTSVIAADTAVYYCARERFDRTSYKSWWGQGTQVTVSS
VL: DIVLTQAPGTLSLSPGDRATLSCRASQRLGGTSLAWYQHRSGQAPRLILYGTSNRATDTPDRFSGSGSGTDFVLTISSLEPEDFAVYYCQQYGSPPYTFGQGTTLDIK
B2: TRL1218 (antibody, V domains shown)
VH: QVQLLESGADMVQPGRSLRLSCAASGFNFRTYAMHWVRQAPGKGLEWVAVMSHDGYTKYYSDSVRGQFTISRDNSKNTLYLQMNNLRPDDTAIYYCARGLTGLSVGFDYWGQGTLVTVSS
VL: DIVLTQSASVSGSPGQSITISCTGTSSDVGGYNYVSWYQQHPGKAPKLMIYDVTTRPSGVSDRFSGSKSGNTASLTISGLQAEDEADYYCSSYSSGSTPALFGGGTQLTVL
B3: TRL1232 (antibody, V domains shown)
VH: QVQLVESGAEVKKPGALVKVSCKASGYTFSGYYMHWVRQAPGQGLEWMGWINPKSGGTKYAQKFQGRVTMTRDTSISTAYMELSRLRSDDTAVYFCARGGPSNLERFLERLQPRYSYDDKYAMDVWGQGTTVTVSS
VL: DIVMTQSPGTLSLSPGARATLSCRASQSVSSIYLAWYQQKPGQAPRLLIFGASSRATGIPDRFSGSGSGTDFTLTISRLEPEDFAVYYCQQYGSSPYTFGQGTKLEIKR
B4: TRL1230 (antibody, V domains shown)
VH: QVQLVQSGGGLVKPGGSLRLSCGASGFNLSSYSMNWVRQAPGKGLEWVSSISSRSSYIYYADSVQGRFTISRDNAKNSLYLQMNSLRAEDTAIYYCARVSPSTYYYYGMDVWGQGTTVTVSS
VL: DIVLTQPSSVSVSPGQTARITCSGDELPKQYAYWYQQKPGQAPVLVIYKDNERPSGIPERFSGSSSGTTVTLTISGVQAEDEADYYCQSADSSGTYVVFGGGTKLTVL
B5: TRL1087 (antibody, V domains shown)
VH: QVQLLESGPGLVRPSDTLSLTCTFSADLSTNAYWTWIRQPPGKGLEWIGYMSHSGGRDYNPSFNRRVTISVDTSKNQVFLRLTSVTSADTAVYFCVREVGSYYDYWGQGILVTVSS
VL: DIEMTQSPSSLSASVGDRITITCRASQGISTWLAWYQQKPGKAPKSLIFSTSSLHSGVPSKFSGSGSGTDFTLTITNLQPEDFATYYCQQKWETPYSFGQGTKLDMIR
B6: TRL1070 (antibody, V domains shown)
VH: QVQLVQSGGTLVQPGGSLRLSCAASGFTFSYYSMSWVRQAPGKGLEWVANIKHDGTERNYVDSVKGRFTISRDNSEKSLYLQMNSLRAEDTAVYYCAKYYYGAGTNYPLKYWGQGTRVTVSS
VL: DILMTQSPSSLSASVGDRVTITCRASQGIRNDLGWYQQKPGKAPKLLIYAASSLQSGVPSRFSGSGSGTDFTLTISSLQPEDFATYYCLQDYNYPLTFGGGTKVEIKR
B7: TRL1215 (antibody, V domains shown)
VH: QVQLVESGTEVKNPGASVKVSCTASGYKFDEYGVSWVRQSPGQGLEWMGWISVYNGKTNYSQNFQGRLTLTTETSTDTAYMELTSLRPDDTAVYYCATDKNWFDPWGPGTLVTVSS
VL: DIVMTQSPSASGSPGQSITISCTGTNTDYNYVSWYQHHPGKAPKVIIYDVKKRPSGVPSRFSGSRSGNTATLTVSGLQTEDEADYYCVSYADNNHYVFGSGTKVTVL
B8: TRL1216 (antibody, V domains shown)
VH: QVQLVESGGGVVQPGGSLRVSCAASAFSFRDYGIHWVRQAPGKGLQWVAVISHDGGKKFYADSVRGRFTISRDNSENTLYLQMNSLRSDDTAVYYCARLVASCSGSTCTTQPAAFDIWGPGTLVTVSS
VL: DIMLTQPPSVSVSPGQTARITCSGDALPKKYTYWYQQKSGQAPVLLIYEDRKRPSEIPERFSAFTSWTTATLTITGAQVRDEADYYCYSTDISGDIGVFGGGTKLTVL

Molecular target: T2, IHF from Klebsiella pneumoniae (Kp) (Klebsiella pneumoniae)
T2 construct: Recombinant, His-tagged, made in HEK293 cells; also called IHF (Kp)
T2 sequence (A6TAI1 whole entry, chain 1 of 2): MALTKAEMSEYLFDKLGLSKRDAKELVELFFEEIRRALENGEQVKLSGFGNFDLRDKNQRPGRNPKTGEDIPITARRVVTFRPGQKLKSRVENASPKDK
T2 sequence (A6T704 whole entry, chain 2 of 2, further chain): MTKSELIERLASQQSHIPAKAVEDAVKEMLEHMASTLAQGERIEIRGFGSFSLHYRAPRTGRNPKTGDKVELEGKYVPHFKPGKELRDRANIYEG
Assay: ForteBio Octet QK biosensor (BLI), ratio of on and off rates

Binder | Kd [nM]
B1 | 7

Molecular target: T1, IHF from Haemophilus influenzae (Hi)
Assay: as above

Binder | Kd [nM]
B1 | 350

Molecular target: T2, IHF from Klebsiella pneumoniae (Kp)
Assay: ELISA

Binder | OD [OD]
B2 | 0.06
B3 | 0.1
B4 | 0.07
B5 | 0.06
B6 | 0.5
B7 | 1.6
B8 | 0.4

Molecular target: T1, IHF from Haemophilus influenzae (Hi)
Assay: ELISA

Binder | OD [OD]
B2 | 0.04
B3 | 0.1
B4 | 0.06
B5 | 0.06
B6 | 0.11
B7 | 1.9
B8 | 0.06
